# Assay results taken from patent US11339383B2, “G proteins” (HEPTARES THERAPEUTICS LIMITED, priority 2016, dated 2022).
# Numbering of substitutions follows the chain as printed. In names and notes the source's numbering stands.
# B1: Mini-Go112: mini-G protein of Go1, construct 12; SEQ ID NO:113 (protein)
# chain: MGHHHHHHENLYFQGIEKNLKEDGISAAKDVKLLLLGADNSGKSTIVKQMKIIHGGSGGSGGTTGIVETHFTFKNLHFRLFDVGGQRSERKKWIHCFEDVTAIIFCVDLSDYNRMHESLMDFDSICNNKFFIDTSIILFLNKKDLFGEKIKKSPLTICFPEYTGPNTYEDAAAYIQAQFESKNRSPNKEIYCHMTCATDTNNAQVIFDAVTDIIIANNLRGCGLY
# modifications: Mini-Go112
# B2: Mini Gs164: A249D and switch III deletion (protein)
# chain: MGHHHHHHANKKIEKQLQKDKQVYRATHRLLLLGAGESGKSTIVKQMRILHGGGGGETKFQVDKVNFHMFDVGGQRDERRKWIQCFNDVTAIIFVVDSSSYNRLQEALNLFKSIWNNRWLRTISVILFLNKQDLLAEKVLAGKSKIEDYFPEFARYTTPEDATPEPGEDPRVTRAKYFIRDEFLRISTASGDGRHYCYPHFTCAVDTENIRRVFNDCRDIIQRMHLRQYELL
# modifications: MINI GS164
# notes: A249D and switch III deletion
# B3: Mini Gs183: G49D-E50N-A249D-S252D-SIII-L272D (protein)
# chain: B2 chain with G36D, E37N, S100D, L110D
# modifications: MINI GS183
# notes: G49D-E50N-A249D-S252D-SIII-L272D
# B4: Mini Gs169: A249D-S252D-SIII- (mutation list truncated in table) (protein)
# chain: B2 chain with S100D, L110D
# modifications: MINI GS169
# B5: Mini Gs165: A249D-S252D-SIII (protein)
# chain: B2 chain with S100D
# modifications: MINI GS165
# notes: A249D-S252D-SIII
# B6: Mini Gs199: mini Gs, Gly8 linker, switch III deleted, G49D E50N A249D S252D L272D (protein)
# chain: MGHHHHHHANKKIEKQLQKDKQVYRATHRLLLLGADNSGKSTIVKQMRILHGGGGGGGGTSGIFETKFQVDKVNFHMFDVGGQRDERRKWIQCFNDVTAIIFVVDSSDYNRLQEALNDFKSIWNNRWLRTISVILFLNKQDLLAEKVLAGKSKIEDYFPEFARYTTPEDATPEPGEDPRVTRAKYFIRDEFLRISTASGDGRHYCYPHFTCAVDTENIRRVFNDCRDIIQRMHLRQYELL
# modifications: MINI GS199
# notes: mini Gs, Gly8 linker, switch III deleted, G49D E50N A249D S252D L272D
# B7: Mini Gs254: mini Gs199 with M60A (protein)
# chain: B6 chain with M47A
# modifications: MINI GS254
# notes: mini Gs199 with M60A
# B8: Mini Gs350: mini Gs199 with L63Y (protein)
# chain: B6 chain with L50Y
# modifications: MINI GS350
# notes: mini Gs199 with L63Y
# B9: Mini Gs352: mini Gs199 with L63Y-I372A (protein)
# chain: B6 chain with L50Y, I218A
# modifications: MINI GS352
# notes: mini Gs199 with L63Y-I372A
# B10: Mini Gs340: mini Gs199 with I372A (protein)
# chain: B6 chain with I218A
# modifications: MINI GS340
# notes: mini Gs199 with I372A
# B11: Mini GS303: mini Gs199 with V375I (protein)
# chain: B6 chain with V221I
# modifications: MINI GS303
# notes: mini Gs199 with V375I
# B12: Mini Gs345: mini Gs199 with I372A-V375I; detergent stabilised construct (protein)
# chain: B6 chain with I218A, V221I
# modifications: MINI GS345
# notes: mini Gs199 with I372A-V375I; detergent stabilised construct
# B13: Mini Gs399: mini Gs393 with N-terminal residues 6-25 replaced and L272D reversed; binds Gβγ (protein)
# chain: MGHHHHHHENLYFQGNSKTEDQRNEEKAQREANKKIEKQLQKDKQVYRATHRLLLLGADNSGKSTIVKQMRILHGGSGGSGGTSGIFETKFQVDKVNFHMFDVGGQRDERRKWIQCFNDVTAIIFVVDSSDYNRLQEALNLFKSIWNNRWLRTISVILFLNKQDLLAEKVLAGKSKIEDYFPEFARYTTPEDATPEPGEDPRVTRAKYFIRDEFLRISTASGDGRHYCYPHFTCAVDTENARRIFNDCRDIIQRMHLRQYELL
# modifications: MINI GS399
# B14: Mini-Gs/i148: mini-Gs/i1 chimera construct 48; SEQ ID NO:112 (protein)
# chain: B13 chain with C248V, R249T, Q253I, R254K, H256N, Q259D, Y260C, E261G, L263F
# modifications: Mini-Gs/i148
# B15: mini-Gs/o_16: mini-Gs/o1 chimera construct 16; SEQ ID NO:139 (protein)
# chain: B13 chain with C248V, R249T, Q253I, R254A, H256N, Q259G, Y260C, E261G, L263Y
# modifications: miniGs/o_16
# B16: Gαs: purified non-lipidated Gαs subunit (protein, UniProt P63092 2-394, looked up)
# Guanine nucleotide-binding …: GCLGNSKTEDQRNEEKAQREANKKIEKQLQKDKQVYRATHRLLLLGAGESGKSTIVKQMRILHVNGFNGEGGEEDPQAARSNSDGEKATKVQDIKNNLKEAIETIVAAMSNLVPPVELANPENQFRVDYILSVMNVPDFDFPPEFYEHAKALWEDEGVRACYERSNEYQLIDCAQYFLDKIDVIKQADYVPSDQDLLRCRVLTSGIFETKFQVDKVNFHMFDVGGQRDERRKWIQCFNDVTAIIFVVASSSYNMVIREDNQTNRLQEALNLFKSIWNNRWLRTISVILFLNKQDLLAEKVLAGKSKIEDYFPEFARYTTPEDATPEPGEDPRVTRAKYFIRDEFLRISTASGDGRHYCYPHFTCAVDTENIRRVFNDCRDIIQRMHLRQYELL
# modifications: non-lipidated
# notes: purified non-lipidated Gαs subunit
# B17: Mini-Golf6: mini-G protein of Golf, 7 point mutations and 3 deletions from mini-Gs; SEQ ID NO:105 (protein)
# chain: MGHHHHHHENLYFQGIEKQLQKERLAYKATHRLLLLGADNSGKSTIVKQMRILHGGSGGSGGTSGIFETRFQVDKVNFHMFDVGGQRDERRKWIQCFNDVTAIIYVADCSDYNRLRESLDDFESIWNNRWLRTISIILFLNKQDMLAEKVLAGKSKIEDYFPEYANYTVPEDATPDAGEDPKVTRAKFFIRDLFLRISTATGDGKHYCYPHFTCAVDTENARRIFNDCRDIIQRMHLKQYELL
# modifications: Mini-Golf6
# B18: Mini-Gi146: mini-Gi1 construct 46: N-terminus re-inserted, D249 back to Leu, G217D; SEQ ID NO:110 (protein)
# chain: MGHHHHHHENLYFQGTLSAEDKAAVERSKMIDRNLREDGEKAAREVKLLLLGADNSGKSTIVKQMKIIHGGGGGGGGTTGIVETHFTFKDLHFKMFDVGGQRSERKKWIHCFEDVAAIIFCVDLSDYNRMHESMKLFDSICNNKWFTDTSIILFLNKKDLFEEKIKKSPLTICYQEYAGSNTYEEAAAYIQCQFEDLNKRKDTKEIYTHFTCATDTKNAQFIFDAVTDVIIKNNLKDCGLF
# modifications: Mini-Gi146
# B19: Mini Gs162: mini Gs161 with A249D (protein)
# chain: MGHHHHHHANKKIEKQLQKDKQVYRATHRLLLLGAGESGKSTIVKQMRILHGGGGGETKFQVDKVNFHMFDVGGQRDERRKWIQCFNDVTAIIFVVDSSSYNMVIREDNQTNRLQEALNLFKSIWNNRWLRTISVILFLNKQDLLAEKVLAGKSKIEDYFPEFARYTTPEDATPEPGEDPRVTRAKYFIRDEFLRISTASGDGRHYCYPHFTCAVDTENIRRVFNDCRDIIQRMHLRQYELL
# modifications: MINI GS162
# notes: mini Gs161 with A249D
# Key:
# [1] = Thermostability of GDP-bound mini G proteins by differential scanning fluorimetry (DSF); format: physicochemical; details: for Stability measured by DSF: mini-G protein alone, GDP-bound; for Mini Gs basal Tm (GDP-bound state, DSF): 1 mM GDP, SYPRO-orange, no receptor
# Protocol: SYPRO-orange (15 μl) was added from a 20× stock solution to give a final concentration of 2×. Samples were mixed and 2×50 μl aliquots (duplicates) were transferred to 0.2 ml PCR tubes (Qiagen). Thermostability measurements were performed using a Rotor-Gene Q (Qiagen). Samples were equilibrated for 90 s at 25° C. before ramping from 25 to 99° C. at 4 s/° C. The melting temperature (Tm), corresponding to the inflection point of the curve, was derived from analysis using the Rotor-Gene Q software. Tm values were calculated as the mean±SEM from three independent experiments.
# (§1) For constructs see FIGS. 29 and 35-37. Expression, purification and stability measurements by differential scanning fluorimetry (DSF) of the mini-G proteins as well as the non-lipidated Gβ1γ2 dimer, were performed following the protocols described in Example 1. The stability of mini-G proteins was also determined in detergent using native DSF (NanoTemper Prometheus). Mini-G proteins (2 mg/ml) in 50 mM HEPES pH 7.5 (KOH), 20 mM MgCl2, 50 mM NaCl, 1 μM GDP were mixed with either no detergent (control), 0.1% LMNG or 0.1% DDM. Samples were incubated on ice (minimum 30 min) prior to heating on the Prometheus (20% excitation, 15° C.-85° C., rate of 2.0° C./min) and the onset of scattering determined.
# [2] = Stability of mini-G proteins in detergent by native DSF; format: physicochemical; details: 2 mg/ml, onset of scattering
# Protocol: as §1
molecule,measurement,setting,value
B1,Stability measured by DSF,[1]; listed as Go1 12,63.8 ± 0.1 °C
same,Stability measured by DSF,[1]; listed as mini-Go1,64 °C
same,"Stability in detergent measured by native DSF, 0.1% DDM",[2],32.6 ± 0.2 °C
same,"Stability in detergent measured by native DSF, 0.1% LMNG",[2],40.7 ± 0.1 °C
same,"Stability in detergent measured by native DSF, No detergent",[2],43.6 ± 0.2 °C
B2,"Mini Gs basal Tm (GDP-bound state, DSF)",[1],66.5 ± 0.0 (n = 3) ° C.
B3,"Mini Gs basal Tm (GDP-bound state, DSF)",[1],72.5 ± 0.0 (n = 3) ° C.
B4,"Mini Gs basal Tm (GDP-bound state, DSF)",[1],67.1 ± 0.0 (n = 3) ° C.
B5,"Mini Gs basal Tm (GDP-bound state, DSF)",[1],68.7 ± 0.0 (n = 3) ° C.
B6,"Mini Gs basal Tm (GDP-bound state, DSF)",[1],72.5 ± 0.0 (n = 3) ° C.
B7,"Mini Gs basal Tm (GDP-bound state, DSF)",[1],70.3 ± 0.0 (n = 3) ° C.
B8,"Mini Gs basal Tm (GDP-bound state, DSF)",[1],70.7 ± 0.0 (n = 3) ° C.
B9,"Mini Gs basal Tm (GDP-bound state, DSF)",[1],64.7 ± 0.1 (n = 3) ° C.
B10,"Mini Gs basal Tm (GDP-bound state, DSF)",[1],66.6 ± 0.1 (n = 3) ° C.
B11,"Mini Gs basal Tm (GDP-bound state, DSF)",[1],70.3 ± 0.0 (n = 3) ° C.
B12,"Mini Gs basal Tm (GDP-bound state, DSF)",[1],65.4 ± 0.1 (n = 3) ° C.
B13,Stability measured by DSF,[1],71.6 ± 0.0 °C
B14,Stability measured by DSF,[1],72.1 ± 0.1 °C
B15,Stability measured by DSF,[1],69.0 ± 0.1 °C
B16,"Mini Gs basal Tm (GDP-bound state, DSF)",[1],50.1 ± 0.1 (n = 3) ° C.
B17,Stability measured by DSF,[1]; listed as Golf 6,64.8 ± 0.4 °C
same,Stability measured by DSF,[1]; listed as mini-Golf,65 °C
same,"Stability in detergent measured by native DSF, 0.1% DDM",[2],37.4 ± 0.2 °C
same,"Stability in detergent measured by native DSF, 0.1% LMNG",[2],41.9 ± 0.0 °C
same,"Stability in detergent measured by native DSF, No detergent",[2],44.3 ± 0.1 °C
B18,less stable than mini-Gs by,[1]; DSF,17 °C
same,Stability measured by DSF,[1],48 °C
same,Stability measured by DSF,[1]; listed as Gs/i1 46,47.8 ± 0.3 °C
B19,"Mini Gs basal Tm (GDP-bound state, DSF)",[1],60.6 ± 0.1 (n = 3) ° C.
